Reference: PMC4562236

Key:
[1] = tested on: T1, His-ArsR (Bacillus sp. CDB3), ORF:1234e343; test: EMSA; details: 10 mM Tris-HCl pH 7.6, 80 mM KCl, 0.2 mM EDTA, 0.2 mM DTT, 10% glycerol, 0.75 µM BSA, 30 µL, on ice 30 min; 6% native acrylamide gel in TBE pH 8.3
T1 sequence: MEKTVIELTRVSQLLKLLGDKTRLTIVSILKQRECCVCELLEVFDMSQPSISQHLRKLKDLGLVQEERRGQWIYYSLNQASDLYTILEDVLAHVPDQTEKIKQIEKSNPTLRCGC

[2] = tested on: T2, His-ArsD (Bacillus sp. CDB3), ORF:bd8c364d; test: EMSA; details: 10 mM Tris-HCl pH 7.6, 80 mM KCl, 0.2 mM EDTA, 0.2 mM DTT, 10% glycerol, 0.75 µM BSA, 30 µL, on ice 30 min; 6% native acrylamide gel in TBE pH 8.3
T2 sequence: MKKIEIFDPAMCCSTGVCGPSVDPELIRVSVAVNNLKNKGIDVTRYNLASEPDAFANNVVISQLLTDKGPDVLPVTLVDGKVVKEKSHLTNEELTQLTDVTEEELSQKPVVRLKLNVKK

TGAGACTGCTATGAAAGAAAACGGTGTTTCAACATTACGTTTTACATTTGATGGTGCTGGATGCTGTGGCCCTAGTTACGGTATTAATTTAGGTGAAGCACAAGAAAATGATGTCACAGAAACAGTCTAGAC (double strand) [proN]
binding [1]: no binding

TTCAGTTGAATATATAAGCGGTTAATTATATACTTATTTCAAGAGGGAGAGAAAATTAAATATGAATCCATTTAATGAATATTACGTTTAATTTTTACTCAACATATAAGTATATGCTTATGCAATTATGAAAAGGAGGTATAGATATGGCTCTAGATA (double strand) [proR]
binding [1]: binds
binding [2]: no binding
